# Measurements taken from patent US20120201809A1 (COVX TECHNOLOGIES IRELAND, published 2012).
# Like-named read-outs stand apart in the source and are kept apart here.
# B1: 2.12.1.fx antibody (anti-IGF1R antibody) (antibody, human IgG2, kappa, V domains shown)
# VH: QVQLVESGGGLVKPGGSLRLSCAASGFTFSDYYMSWIRQAPGKGLEWVSYISSSGSTRDYADSVKGRFTISRDNAKNSLYLQMNSLRAEDTAVYYCVRDGVETTFYYYYYGMDVWGQGTTVTVSS
# VL: DIQMTQSPSSLSASVGDRVTITCRASQDIRRDLGWYQQKPGKAPKRLIYAASRLQSGVPSRFSGSGSGTEFTLTISSLQPEDFATYYCLQHNNYPRTFGQGTKLVIKR
# Tests used:
# [1] = target: T1, human IGF1R on cells (mouse 3T3 cells engineered to express human IGF1R); human colon adenocarcinoma Colo205 … (human, UniProt P08069 31-1367); test: cell-based or functional assay
# [2] = target: T1, human IGF1R on cells (mouse 3T3 cells …); test: cell-based or functional assay; remark: listed apart in the source
binder,measurement,setting,value
B1,% IGF1R downregulated,[1],48%
same,% IGF1R downregulated,[2],36%
